Laboratory results as given in the supplement of paper PMC12042874.
± gives the uncertainty stated by the source.

Assay: amyloid nucleation score (Sup35N fusion, yeast selection) (log enrichment); library NNK2; higher = more nucleation; inactive = no reads after selection
Procedure, shortened: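 Using DiMSum, nucleation scores were taken as the log enrichment of output over input reads, centred on the mode score of non-aggregating sequences. The input and output reads came from Illumina sequencing of plasmid inserts, with sequences under 100 input reads excluded. The yeast were psi-negative, expressed Sup35N fused to peptides of 20 random codons, were induced with 100 μM copper sulfate for 24 hours, and were grown 7 days at 30°C on medium lacking adenine and uracil.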

| Substance | amyloid nucleation score |
| --- | --- |
| LLLPSAGKGSL | 0.219 ± 1 |
| HFMIVSLDGNHVMTTAAGVA | 0.233 ± 0.43 |
| LVGDRNDVLPVFVRSRRRVP | 0.53 ± 0.56 |
| LTDSKSALRLAMR | 4.48 ± 0.039 |
| HSAIDMWS | -0.903 ± 0.44 |
| IKTIADIYCISQSRIGSKLT | inactive |
| ACCFESSGIQLEVRGGGAWG | 1.58 ± 0.27 |
| LNNSIYHLGKY | inactive |
| GRYVNCGRSLRICSINLTKI | -1.31 ± 0.55 |
| YANERNTDFNNRWFLHGIKR | -1.34 ± 1.1 |
| NCVHRDNWE | inactive |
| RYQFSATPGVVRWKFEEYSD | -0.047 ± 0.46 |
| KTCRFLCA | 0.176 ± 0.64 |
| IAIFWSYWGDVIVYSGMVLE | -0.187 ± 0.55 |
| PCSGSLPRTKTD | -0.167 ± 0.32 |
| KDVTVNIRWTLIQLLYHTNF | 4.08 ± 0.11 |
| LRMSVVQLSVRESLLDNHDY | 1.78 ± 0.25 |
| CPSLRGVVVRSLSTGSSDAR | 0.163 ± 0.56 |
| DREVSRVGLD | 1.29 ± 0.34 |
| IWNWRQYLYVLGADRFSYMC | 4.19 ± 0.049 |
| FLGYIKSLCMYYRRSGMINA | -2.17 ± 0.62 |
| LCILVFRGASRSLFSGGVFT | -0.199 ± 0.76 |
| SSEIKRSWGYFLSLLWFYYR | -0.696 ± 1 |
| VNRVTRPNECYACQYMFGRW | 1.19 ± 0.18 |
| SSWYHFDFGYCECGSNDGFV | 0.102 ± 0.79 |

| Substance | amyloid nucleation score |
| --- | --- |
| WLVTAMSMLVCLPGYESLYW | 1.98 ± 0.21 |
| RWIATGSGRPETHVILESSG | inactive |
| CLGNHIDSCVVFLTDAESSS | -0.484 ± 0.65 |
| GLNYIARMSQN | 0.392 ± 0.3 |
| FEYNRF | 0.691 ± 0.8 |
| SYARIYFWDEILENPSPVWE | -0.378 ± 1 |
| YRNVPRRMYRCVGISWS | 1.13 ± 0.11 |
| NNRSELVPKSANRMGFTSLA | -0.278 ± 0.29 |
| AMGNKREKVL | 0.601 ± 0.44 |
| YLVFKYTRGMFLVLCTPIWV | -1.17 ± 0.39 |
| AFNDIYIMKMHIFGKSIVLL | inactive |
| YYVERCNGTMVRNFLGATLV | -0.968 ± 0.5 |
| SNFPWPMERPEFSDDSVFWA | -0.313 ± 0.76 |
| NLWSSGKWLMCI | -0.292 ± 0.29 |
| VVYRYRVRHCL | 0.725 ± 0.27 |
| FSGLSCY | inactive |
| DGGREPIVFYSQNYVCNKFV | 6.775 ± 0.048 |
| LYDIWEDGSITLFCYSYQHH | 8.969 ± 0.037 |
| SDHLCRYV | -0.095 ± 1.1 |
| HLPGYSPIDCRKGLVLGRCT | 0.027 ± 0.54 |
| SIFVTYSLRTYINYK | 5.95 ± 0.062 |
| VLNEDVRGKANTVVSSMG | 0.413 ± 0.24 |
| WIILGTSSAVWRTHDYLA | 3.43 ± 0.06 |
| TRSDMLVLLCIIMCFSYSYP | 6.31 ± 0.09 |
| ASVNSRSINSSGQFPPCFRK | -0.434 ± 0.61 |

| Substance | amyloid nucleation score |
| --- | --- |
| DLWRY | 0.102 ± 0.77 |
| AYLTTREAVGLFNKACLASY | 0.439 ± 0.74 |
| SNGCRRALL | inactive |
| TNCGRVINRSSVVHAFNYGV | inactive |
| IGNRQVDFISDGAG | 0.034 ± 1.1 |
| SPMTDLVRMRGRME | 0.051 ± 0.49 |
| SWLRMSTDVIGLRWFDGNA | 4.84 ± 0.065 |
| AAFRSTFDCTTVVLRSPSVS | -0.345 ± 0.33 |
| AGKFYAGRHNSD | inactive |
| IPRFRLYANCRMFNRV | 0.056 ± 0.39 |
| MENLRNMAYSNC | -1.66 ± 0.61 |
| FPWYCVGYVRSKRDRKVAWS | 0.04 ± 0.34 |
| LNNRISNVAAGSSLRIYLMD | 2.79 ± 0.062 |
| RVLRLVSVLLFDVILSVE | 4.85 ± 0.085 |
| LDATNSKNVYRMPAWKGNMR | 0.564 ± 0.32 |
| SGCPNDWQYFSS | -1.08 ± 0.54 |
| CFRDTFERSFKFLERPNIMH | 1.26 ± 0.19 |
| LLKKRANGYHYSKNLKCPAR | -1.29 ± 1.1 |
| TTFIRLVIITPWV | 2.75 ± 0.15 |
| IRFWSKSGFVQGCSIRISLS | 0.02 ± 1 |
| HEHLLPRT | 0.02 ± 0.74 |
| GHGFCDNVTSP | -1.2 ± 1.1 |
| SVYRFFAKSKMKCWGLHNGG | -0.63 ± 0.55 |
| CSSNCFYEAFVLGYKTHARE | 0.295 ± 1 |
| YCNYVTRDSFAFMSSFFMSA | -1.55 ± 1.1 |

| Substance | amyloid nucleation score |
| --- | --- |
| ETESG | 0.72 ± 0.38 |
| ISSSKRYVLKS | 0.583 ± 0.39 |
| CWPCRMMKLVREESAVYTGG | 0.062 ± 0.34 |
| RKLGNLLPPEY | 0.499 ± 0.35 |
| YRGINGTTGFQLWAPA | inactive |
| AILKWSLICMMGRDWYSQWF | 6.317 ± 0.037 |
| CLVFTRVWYCAIYRTSFKET | -0.474 ± 0.38 |
| HYYLSTVSVYIGMPIRWFSG | 0.371 ± 0.38 |
| FKNQGDLQTCLLFD | -0.012 ± 0.79 |
| FLVYYINFIAAKCRPKSNLR | inactive |
| PRVGRRGSLRKCPWLLWYVL | 0.052 ± 0.45 |
| VLNRGGETAYTSMFDVYYI | -0.097 ± 0.63 |
| LAGRC | 0.968 ± 0.56 |
| CHRKWRYLMEASHRLSHSSW | inactive |
| LVPPVLGAHVSNKVDVILHA | -0.199 ± 1.1 |
| VRAYLQYR | 0.094 ± 0.74 |
| GYTRNHSLCFFFRMLYM | -1.29 ± 1 |
| SKNVFKMGLDTSH | -1.22 ± 0.32 |
| VEREDVHKGRRFAQACNNLV | 0.495 ± 0.41 |
| VEINNNE | -0.065 ± 0.56 |
| AYSIHPLNKGVKVSYRLAGH | 0.306 ± 0.2 |
| CVTDATVKNYI | -1.42 ± 0.78 |
| RTFYFYGRHR | -1.11 ± 1.1 |
| WLVSSVSCQPMSQSSFVGGL | 5.498 ± 0.05 |
| SACRMNWEVGGIGLSVPLCG | 0.421 ± 0.2 |

| Substance | amyloid nucleation score |
| --- | --- |
| QSKFDTFGSFACTYRYFTAN | 0.698 ± 0.8 |
| RVRDYSYGGSQRLGGYMLG | -0.64 ± 0.61 |
| PHNYLYSFFRRIYYRIGCLN | -0.461 ± 0.3 |
| YYCFHLKEYCRWRSANPHFK | -0.073 ± 1 |
| SARFIIIWNWALSPRPRRCE | 7.561 ± 0.041 |
| MWSLRYTVGLEDCG | 0.897 ± 0.34 |
| VPVTGSNLPAVCKGHGVEYG | -0.045 ± 0.41 |
| GDTVRRLRLEHKSVDLMIQY | 3.73 ± 0.087 |
| MFVLFWVVNSTDLCGTAPLV | 0.205 ± 0.61 |
| FVYESIFLHRMSYNPIRWWV | 0.112 ± 1.1 |
| YMDMWGR | -0.81 ± 0.41 |
| CTRRRM | 1.63 ± 0.15 |
| HRVSMKEGVEC | 0.256 ± 0.31 |
| RSKLFVISNGRRMHVVLSST | 0.605 ± 0.51 |
| LYPYAQFCVSVRRLHRLVSR | 0.306 ± 0.28 |
| VVNKLF | inactive |
| NYMYGLNSVKSVGWLSDI | 0.069 ± 0.46 |
| YQLIGFTKVIRFHSVELIEP | inactive |
| MIWLHIILMLMLVCRVLSE | 0.914 ± 0.46 |
| TMSPCINASIFWDYA | 3.08 ± 0.05 |
| IHKAGFKDKGC | inactive |
| VYTQYYNTKSKISYCFLRLI | inactive |
| EFHVRGDSDGYC | -1.41 ± 1.1 |
| IEPKHWIYTSGGLTRGRLYG | 0.073 ± 1.1 |
| WGENARAESRTEEMLL | 1.81 ± 0.22 |

| Substance | amyloid nucleation score |
| --- | --- |
| FISSMGRVW | -1 ± 0.55 |
| QYYRN | 1.51 ± 0.58 |
| MDPVWVYADFWMF | -0.78 ± 1.1 |
| SFCWRYMCRFVMDSFITVPR | -0.423 ± 0.34 |
| LKQDKGITGEVVGVRILGS | 0.22 ± 0.32 |
| SGDLMYSGRTSPMPAAQKFV | -0.393 ± 1.1 |
| VAEVKRLHIYWRAPSFRSAN | -0.596 ± 0.79 |
| TRSPEYNCRSVEGTVSDKDK | -0.832 ± 0.49 |
| YHFFKCRPCSFSWLITGMVK | -0.287 ± 0.63 |
| QWSFPAILRLDTNTSRYYFQ | -0.776 ± 1.1 |
| YSSYYHNFFRW | -0.277 ± 0.28 |
| IVQLVIAVTGMFLYWNYAFL | -0.461 ± 0.43 |
| ETHIITCLRYRRRMARPHRY | inactive |
| HNLLSRSAQPRGPLRPVRRH | 2.35 ± 0.16 |
| HVMCR | 0.225 ± 0.19 |
| VCTWYRVAIDRRINIS | 1.96 ± 0.066 |
| RQYFNVLDCWGIGVFGHKG | 1.34 ± 0.3 |
| FYFVSSRSIDGVFFRKILNS | inactive |
| NTCMLRARVSVMQNEE | 0.071 ± 0.35 |
| EVEIVAWFGLHHSWWH | 3.25 ± 0.08 |
| SFSDVLNSGVRCF | 0.234 ± 0.35 |
| RISNVWENTFTLSAGSWGVR | 1.38 ± 0.22 |
| HEVYNKGPT | inactive |
| VNRSTELHFIVMREMVWLKS | -0.287 ± 0.62 |
| SDTKCLHY | inactive |

| Substance | amyloid nucleation score |
| --- | --- |
| ASCVVRGQYAQMVYCWRTLG | -0.072 ± 0.23 |
| SLARSTRFLYWSGNELVFIS | 3.66 ± 0.082 |
| TGTFSAKLVDTPEGYYLLSV | -1.01 ± 0.41 |
| ISAETPMIAFCLVPLNPRSV | 1.06 ± 0.68 |
| RFGSLVFFCTGFERSWHTSA | 0.684 ± 0.44 |
| GHSIVLCCRSESPLKKSRYM | -0.432 ± 1 |
| KCVRTTVLHNRRVPDGLTMP | 0.678 ± 0.33 |
| LTPYEYCVYDCFLSLESVLF | inactive |
| LLGLSGKYWIRGSKNSIFVW | 0.157 ± 0.39 |
| MNYTT | -0.242 ± 0.54 |
| FSKLLDGLTNRSESPASSVD | 1.69 ± 0.14 |
| SISLLMICCDL | 8.511 ± 0.04 |
| RYNLARSLLFHHNTCVFMSV | -0.491 ± 0.53 |
| WLLGMYVIRGRQSYNSKDVR | 3.38 ± 0.054 |
| RVVQKKQLIV | 0.3 ± 0.49 |
| SINLLLGAGVVGGGLVLYGS | 2.45 ± 0.14 |
| WDIIF | -1.45 ± 0.34 |
| YNLNCHLFSAWTFNYKIAFL | 5.958 ± 0.043 |
| FVWGREMGCWCQEWYRCMRN | -0.015 ± 0.24 |
| WFHVITFFLGASCIMWTKTR | inactive |
| LTTGKLYFSLEMYT | -0.653 ± 0.63 |
